# In patent publication US8076297B2, “Pharmaceutical composition containing polypeptide fragments of serralysins” (Centro De Ingenieria Genetica Y Biotecnologia, priority 2004, dated 2011):
# Entries after “also recorded” stand apart in the source; their conditions may differ. Like-named read-outs stand apart in the source and are kept apart here.
# Tests used:
# P3X63Ag8 mieloide tumor = test: Regression of implanted P3X63Ag8 myeloid tumor; format: in vivo, BALB/c mice
# Description: The p25 was them injected i.p. to mice BALB/c after of 8 days of implanted P3X63Ag8 mieloide tumor and perfectly development. The doses of 22 μg/kg of weigh of p25 induced total regression in the 80% of the animals treatment. the negative controls death in the end of 30 days, where already had development compact tumors.
# [1] = test system: human microvasculature endothelial cells (HMEC); test: Formation of tubular structures in matrigel; format: cell-based; settings: non-cytotoxic concentrations; activation with 10 ng/mL EGF, 1 μg/mL hydrocortisone
# Description: Anti-angiogenic effect of MG2327 and anti-proliferative polypeptides fragments were evaluate by the method of formation of tubular structure in matrigel. Non citotoxic concentration of MG2327 and their fraction p25 y p50 were incubed with human microvasculature endothelial celulas (HMEC). The final result it evalued considering the tubular structure length formed and the number of interconexión between them. For this used Pro Express 4.5 Image-program.
# Human micro-vasculature-derived human endotelial cells (HMEC) were assessed for endothelial cord formation on matrigel (Crum R, Szabo S, Folkman J. 1985. Science. 230:1375-8; Vacca, A., Ribatti, D., Presta, M., Minischettti, M., lurlaro, M, Ria, R, Albini, A, Bussolino, F. and Dammaacco, F. 1999. Blood 93:3064) after culture under non-cytotoxic MG2327 and p25 and p50 concentrations (Sanz, L., Pascual, M., Muñoz, A., González, M. A., Salvador C H, Álvarez-Vallina L. 2002. Microvascular Research 63:335-339). Results considered the length of tubular structures and the number of interconnections between them, as calculated by using the Image-Pro Express 4.5 package.
# [2] = test system: murine mieloma P3X63Ag8 cells; test: Apoptosis: DNA laddering and electron microscopy; format: cell-based
# Description: For determining the kind of tumoral cell death, murine mieloma P3X63Ag8 cells (2*10^7) were treated in vitro with MG2327 at 22 μg/mL. Treated and untreated cells were prepared for ultrastructural transmission electron microscopy studies at different times, and genomic DNA was extracted for DNA laddering assay.
# DNA fragmentation was assessed by 2% agarose gel electrophoresis. Apoptosis frequently involves cellular DNA laddering of 180-200 bp, representative of inter-nucleosomal distances (Soldatenkov, V. A., Prasad, S., Voloshin, Y., and Dritschilo, A. 1998. Cell Death Differ. 5:307-12).
# casein = test: Proteolytic activity, modified Anson and Mirsky method; format: biochemical
# Description: The modify method of Anson y Mirsky (Anson, M. L., Mirsky, A. E. 1932. J. Gen. Physiol. 16: 59) using casein as sustrate, was adjust in our laboratory with Tripsina (y=1.9314x-0.682; R^2=0.999). The proteic fraccions obtained in the chromatography describe in the Example 6 were assay with this method.
# HEp-2 cells = test: Anti-proliferative assay on HEp-2 cells, MTT method; format: cell-based, human
# Description: For the characterization of the antiproliferative activity of MG2327 “in vitro” a panel of human cell lines was evaluated (table 1). A total of 2000 cells, except for PBMC (20000), were seeded in 96 wells culture wells, and different concentrations of MG2327 were added. After 72 hours, the number of survival cells was estimated by addition of MTT (Skehan, P., Storeng, R., Scudiero, D., Monks, A., Mcmahon, J., Vistica, D., Warren, J. T., Bokesch, H., Kenney, S. and BOYD, M. R. 1990. J Natl Cancer Inst. 82:1107). The soluble formazan products were detected at 540 nm in a multiscan plate reader.
# gelatine = test: Proteolytic activity, zymogram method; format: biochemical
# Description: The method of the cimogeno using gelatine as sustrate (Vacca, A., Iurlaro, M., Ribatti, D., Minischetti, M., Nico, B., Ria, R., Pellegrino, A. and Dammacco, F. 1999. Blood. 94:4143-4155) was employed to verify the proteolytic activity of p50 and p25. Moreover was analized the enzymatic capacity of the degradation of p50.
molecule,measurement,setting,value
"p25: 25 kDa non-proteolytic C-terminal fragment of serralysin PRZN_SERMA/PRZN_SERSP, degradation product of p50 (protein) SYWSETNTGGDNGGHYAAAPLLDDIAAIQHLYGANPSTRTGDTVYGFNSNTGRDFLSTTSNSQKVIFAAWDAGGNDTFDFSGYTANQRINLNEKSFSDVGGLKGNVSIAAGVTIENAIGGSGNDVIVGNAANNVLKGGAGNDVLFGGGGADELWGGAGKDIFVFSAASDSAPGASDWIRDFQKGIDKIDLSFFNKEANSSDFIHFVDHFSGTAGEALLSYNASSNVTDLSVNIGGHQAPDFLVKIVGQVDVATDFIV",animals with total regression,"P3X63Ag8 mieloide tumor; 22 μg/kg i.p., 8 days after tumor implant",80%
same,tumor regression,"P3X63Ag8 mieloide tumor; mouse, in vivo",induce total regression
same,differentiation of endothelial cells / tubular net formation,[1],significant inhibition; also recorded: index of net formation inferior to that observed for MG2327 and p50
same,ultrastructural changes (electron microscopy),[2],"chromatin condensing, damaged mitrocondria cristae and clustered mitocondria were detected"
same,proteolytic (enzymatic) activity,casein,no showed enzymatic activity; also recorded: non present enzymatic activity; also recorded: do not present activity
same,inhibition of the growing of the tumor cells,HEp-2 cells; 18 μg/mL,100%
same,activity of 25 kDa fraction compared with 50 kDa fraction,HEp-2 cells; 9 and 18 μg/mL,most active
same,activity of 25 kDa component compared with MG2327,"HEp-2 cells; doses of 2.5, 4.5 and 9 μg/mL",showed major biologic activity
same,IC50,"HEp-2 cells; fractions recovered from SDS gels and renaturalized, p50 with Zn4SO2 5 μM added, read-out: IC50 (FIG. 2)",350 pM
same,IC50,"HEp-2 cells; fractions recovered from SDS gels, p50 incubated with 5 μM Zn2SO4, read-out: IC50 of the fractions p25 and p50",480 pM
same,antiproliferative activity,"HEp-2 cells; gel-recovered fractions, no zinc added (incubated with EDTA)",dosis-dependiente potent anti-proliferative activity; also recorded: strong antiproliferative dose dependent activity
same,anti-proliferative effect,HEp-2 cells; proteins purified by DEAE chromatography,showed anti-proliferative effect on HEp.2
same,proteolytic activity,gelatine,no showed this activity
